Variants at the floor of the assay were thinned out.
B1: TPR 5TU (parent)
chain: GGAUCUUCUCGAUCUAACAAAAAAGACAAAUCUGCCACAAAGCUUGAGAGCAUCUUCGGAUGCAGAGGCGGCAGCCUUCGGUGGCGCGAUAGCGCCAACGUUCUCAACUAUGACACGCAAAACGCGUGCUCCGUUGAAUGGAGUUUAUCAUG

Variants of: B1
Assay: polymerase ribozyme fitness, log enrichment relative to wild type (log ratio); higher = more active; in vitro selection for triplet polymerase activity
Outline: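 Genotype fitness is the logarithm of its enrichment divided by wild-type enrichment, using inverse-variance-weighted averages of replicates. That logarithm is base 2. Enrichment was measured by Illumina sequencing of input and output libraries from one triplicate in vitro selection round, with frozen incubation at −7 °C, on PCR-built, transcribed mutant libraries of each subunit of a heterodimeric triplet polymerase ribozyme, retaining genotypes with ≥10 input reads and ≥1 read per output.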

Q: Which “polymerase ribozyme fitness (log ratio)” value does the source give for U9C A22G A23C G25C G83C here?
A: ≤ -4.2

Q: For C8U A17C A28G C35U C76A C96U U144G, which “polymerase ribozyme fitness (log ratio)” value is on record?
A: -3.75

Q: With U9C A28C C36A C87U C116U as the variant, how does the “polymerase ribozyme fitness (log ratio)” value read?
A: ≤ -4.2

Q: Which “polymerase ribozyme fitness (log ratio)” value does the source give for U9C A29U U31C U44A C75A C85A G141A here?
A: ≤ -4.2

Q: For U9A C43A A147U U151G, which “polymerase ribozyme fitness (log ratio)” value is on record?
A: ≤ -4.2

Q: Which “polymerase ribozyme fitness (log ratio)” value does the source give for C8U A16G A21G A40U here?
A: -4.04

Q: With U9C as the variant, how does the “polymerase ribozyme fitness (log ratio)” value read?
A: -1.27

Q: Which “polymerase ribozyme fitness (log ratio)” value does the source give for U9A here?
A: -2.7

Q: For C8U U53A, which “polymerase ribozyme fitness (log ratio)” value is on record?
A: -3.41

Q: For C8U C35A C72U C76U G88A G92U A121U, which “polymerase ribozyme fitness (log ratio)” value is on record?
A: ≤ -4.2

Q: For C8U A19C G50A C96U, which “polymerase ribozyme fitness (log ratio)” value is on record?
A: ≤ -4.2

Q: Which “polymerase ribozyme fitness (log ratio)” value does the source give for C8G U15G A21G G83U A91G C105U U144C U148A here?
A: ≤ -4.2

Q: For C8U G88U G92A, which “polymerase ribozyme fitness (log ratio)” value is on record?
A: ≤ -4.2

Q: With C8A G11C A29U C95G as the variant, how does the “polymerase ribozyme fitness (log ratio)” value read?
A: ≤ -4.2

Q: Which “polymerase ribozyme fitness (log ratio)” value does the source give for C8U A19C A40G C96U A142U here?
A: ≤ -4.2

Q: With C8A C10G C18U A21U C54A C87U A120G as the variant, how does the “polymerase ribozyme fitness (log ratio)” value read?
A: ≤ -4.2

Q: With C8G A17G G25A C54G G71C C87U U90A C96U C132U as the variant, how does the “polymerase ribozyme fitness (log ratio)” value read?
A: ≤ -4.2

Q: For U9A A24U A121U A122U G141A, which “polymerase ribozyme fitness (log ratio)” value is on record?
A: ≤ -4.2

Q: With C8U A22U U56A A73G A121G C123U as the variant, how does the “polymerase ribozyme fitness (log ratio)” value read?
A: -4.16

Q: Which “polymerase ribozyme fitness (log ratio)” value does the source give for C8A A142C here?
A: -4.11

Q: With C8U U15G A49G G59A A60G G70A G86C C93U A106G U135C as the variant, how does the “polymerase ribozyme fitness (log ratio)” value read?
A: ≤ -4.2

Q: For C8U G25C U82A C87A, which “polymerase ribozyme fitness (log ratio)” value is on record?
A: ≤ -4.2

Q: Which “polymerase ribozyme fitness (log ratio)” value does the source give for C8G A24G U33G G59A G71A G74A U144C here?
A: ≤ -4.2

Q: Which “polymerase ribozyme fitness (log ratio)” value does the source give for C8G A12G G42C U82A C95U C108U G136A G143A A150U here?
A: ≤ -4.2

Q: For U9A C35U U55A A91C, which “polymerase ribozyme fitness (log ratio)” value is on record?
A: ≤ -4.2

Q: With C8A C14U C54A C99A as the variant, how does the “polymerase ribozyme fitness (log ratio)” value read?
A: ≤ -4.2

Q: Which “polymerase ribozyme fitness (log ratio)” value does the source give for C8A G11A G50C U82A G83C here?
A: ≤ -4.2

Q: Which “polymerase ribozyme fitness (log ratio)” value does the source give for C8A U44A C51A A66G C85U U130G here?
A: ≤ -4.2

Q: For U9C A30U C35A U82A A91U C93A G140U G143A U151G, which “polymerase ribozyme fitness (log ratio)” value is on record?
A: ≤ -4.2

Q: Which “polymerase ribozyme fitness (log ratio)” value does the source give for U9A A20C A23U U31G A47C G50U G58A C85U A91C here?
A: ≤ -4.2

Q: With U9A A21U U55A C85G G112C U145A as the variant, how does the “polymerase ribozyme fitness (log ratio)” value read?
A: ≤ -4.2

Q: For C8G C14A A30C C69U C76G A98U U144G, which “polymerase ribozyme fitness (log ratio)” value is on record?
A: ≤ -4.2

Q: Which “polymerase ribozyme fitness (log ratio)” value does the source give for U9A A23C C32U C72G G80A G81A here?
A: ≤ -4.2

Q: Which “polymerase ribozyme fitness (log ratio)” value does the source give for C8U U82G C87A here?
A: ≤ -4.2

Q: With U9C A16G U44G A49G A64G C105G G124A as the variant, how does the “polymerase ribozyme fitness (log ratio)” value read?
A: ≤ -4.2

Q: With C8A U15G C18U G58C C96G as the variant, how does the “polymerase ribozyme fitness (log ratio)” value read?
A: -3.95

Q: With C8G G94A C103U G128C U134A as the variant, how does the “polymerase ribozyme fitness (log ratio)” value read?
A: ≤ -4.2

Q: With C8U A21C G25U A97U as the variant, how does the “polymerase ribozyme fitness (log ratio)” value read?
A: ≤ -4.2

Q: With C8U A26U A120G C125U as the variant, how does the “polymerase ribozyme fitness (log ratio)” value read?
A: ≤ -4.2

Q: For C8G C14G C18G C96U A137U, which “polymerase ribozyme fitness (log ratio)” value is on record?
A: ≤ -4.2

Q: Which “polymerase ribozyme fitness (log ratio)” value does the source give for C8A G88A here?
A: ≤ -4.2

Q: Which “polymerase ribozyme fitness (log ratio)” value does the source give for U9A A19C A41C C57U C96U here?
A: ≤ -4.2

Q: Which “polymerase ribozyme fitness (log ratio)” value does the source give for C8U A22C A26C G50C C85A C116U C118A here?
A: ≤ -4.2

Q: Which “polymerase ribozyme fitness (log ratio)” value does the source give for C8A U55A A66C G67U U77A C99U C108U G133C G136A here?
A: ≤ -4.2

Q: For C8U A37C C93A U151G, which “polymerase ribozyme fitness (log ratio)” value is on record?
A: ≤ -4.2

Q: For C8G G34U A73C C85G U148G, which “polymerase ribozyme fitness (log ratio)” value is on record?
A: ≤ -4.2

Q: Which “polymerase ribozyme fitness (log ratio)” value does the source give for U9A C32A U33G A49U C51U U53A C54U G84U C103A C108G C118G C149U here?
A: ≤ -4.2

Q: With U9A C10U C75A C87A A110G A119C as the variant, how does the “polymerase ribozyme fitness (log ratio)” value read?
A: ≤ -4.2

Q: With C8U A40C A41G G50A U56A C93A as the variant, how does the “polymerase ribozyme fitness (log ratio)” value read?
A: ≤ -4.2

Q: For U9A C76U C85U C132U G133C, which “polymerase ribozyme fitness (log ratio)” value is on record?
A: ≤ -4.2

Q: For C8G C57U G59A C69G G88U C96G A120U, which “polymerase ribozyme fitness (log ratio)” value is on record?
A: ≤ -4.2

Q: Which “polymerase ribozyme fitness (log ratio)” value does the source give for U9A U13G C32G C51G G70U U127G here?
A: ≤ -4.2

Q: Which “polymerase ribozyme fitness (log ratio)” value does the source give for U9A U15A C93U C103G here?
A: ≤ -4.2

Q: For C8A U53A G81C C85G C108U A138G A147G A150U G152U, which “polymerase ribozyme fitness (log ratio)” value is on record?
A: -3.5

Q: For C8A C14U A21C U53A G83A A150C, which “polymerase ribozyme fitness (log ratio)” value is on record?
A: ≤ -4.2

Q: Which “polymerase ribozyme fitness (log ratio)” value does the source give for C8G G11A A17U G71U G88U U127C U135G U148C A150C here?
A: ≤ -4.2

Q: For C8U C79G G84A G94C G136C A138G A150G, which “polymerase ribozyme fitness (log ratio)” value is on record?
A: ≤ -4.2

Q: For C8U A24C C36U G48A C95G C105U U145A, which “polymerase ribozyme fitness (log ratio)” value is on record?
A: ≤ -4.2

Q: With U9A A16U A19U C27G U77C G84A G100C G133U G141A U145A as the variant, how does the “polymerase ribozyme fitness (log ratio)” value read?
A: ≤ -4.2

Q: Which “polymerase ribozyme fitness (log ratio)” value does the source give for C8G A52C U55C G65A G83U C105U G143U here?
A: ≤ -4.2

Q: For U9C A49G A106G C116U G136A A137C G143A U144C U148G, which “polymerase ribozyme fitness (log ratio)” value is on record?
A: ≤ -4.2

Q: For U9C A12C C57U C63U G74C A119G U146G, which “polymerase ribozyme fitness (log ratio)” value is on record?
A: ≤ -4.2

Q: Which “polymerase ribozyme fitness (log ratio)” value does the source give for C8A A73U G83A C93U A138C U145C here?
A: ≤ -4.2

Q: Which “polymerase ribozyme fitness (log ratio)” value does the source give for C8G C43U G88C C93A U146G here?
A: ≤ -4.2

Q: For C8U C123G, which “polymerase ribozyme fitness (log ratio)” value is on record?
A: -3.42

Q: Which “polymerase ribozyme fitness (log ratio)” value does the source give for C8A U55A G88A G133C G136A U139A G143C here?
A: ≤ -4.2

Q: Which “polymerase ribozyme fitness (log ratio)” value does the source give for C8U A41C U44G G81C G92U C93G here?
A: ≤ -4.2

Q: Which “polymerase ribozyme fitness (log ratio)” value does the source give for C8U G83U here?
A: -3.5

Q: For C8U G83A, which “polymerase ribozyme fitness (log ratio)” value is on record?
A: -2.94

Q: Which “polymerase ribozyme fitness (log ratio)” value does the source give for C8U G83C here?
A: -2.8

Q: With C8G C54G C85U A121U C131A G136U A137G as the variant, how does the “polymerase ribozyme fitness (log ratio)” value read?
A: ≤ -4.2

Q: For C8U A16U A49C A73C C85U C108G, which “polymerase ribozyme fitness (log ratio)” value is on record?
A: ≤ -4.2

Q: With C8G G11U U31A U90G A137C A150U as the variant, how does the “polymerase ribozyme fitness (log ratio)” value read?
A: -4.16

Q: Which “polymerase ribozyme fitness (log ratio)” value does the source give for C8A A73G C93A U146C here?
A: -4.17

Q: With U9C A17U A30G G42C C51A C87U as the variant, how does the “polymerase ribozyme fitness (log ratio)” value read?
A: ≤ -4.2

Q: For U9A C18G A52G G58C A138G, which “polymerase ribozyme fitness (log ratio)” value is on record?
A: ≤ -4.2

Q: With U9C A16U A21G G70C G92U G143U U145G as the variant, how does the “polymerase ribozyme fitness (log ratio)” value read?
A: ≤ -4.2

Q: With C8U A73U as the variant, how does the “polymerase ribozyme fitness (log ratio)” value read?
A: -3.97

Q: For C8U C96U, which “polymerase ribozyme fitness (log ratio)” value is on record?
A: -2.69

Q: For C8U C96G, which “polymerase ribozyme fitness (log ratio)” value is on record?
A: -2.63

Q: For C8U U15A G58U C69A C85A G124C, which “polymerase ribozyme fitness (log ratio)” value is on record?
A: -3.61

Q: For U9A A47C, which “polymerase ribozyme fitness (log ratio)” value is on record?
A: -4.13

Q: Which “polymerase ribozyme fitness (log ratio)” value does the source give for C8U U9G C18G U33G U55A C95U C105U G112U C132U A147U here?
A: ≤ -4.2
